Source: the supplement of paper PMC12458215
± gives the uncertainty stated by the source.

Tested on: HEK293T
Assay: plasma membrane surface immunostaining intensity (anti-HA, deep receptor scanning) (arbitrary fluorescence units); higher = higher plasma membrane expression

Row | Sequence | plasma membrane surface immunostaining intensity (GPCR class: A (Olfactory)) | plasma membrane surface immunostaining intensity (GPCR class: A)
1 | MEETNNSSEKGFLLLGFSDQPQLERFLFAIILYFYVLSLLGNTALILVCCLDSRLHTPMYFFLSNLSCVDICFTTSVAPQLLVTMNKKDKTMSYGGCVAQLYVAMGLGSSECILLAVMAYDRYAAVCRPLRYIAIMHPRFCASLAGGAWLSGLITSLIQCSLTVQLPLCGHRTLDHIFCEVPVLIKLACVDTTFNEAELFVASVVFLIVPVLLILVSYGFITQAVLRIKSAAGRQKAFGTCSSHLVVVIIFYGTIIFMYLQPANRRSKNQGKFVSLFYTIVTPLLNPIIYTLRNKDVKGALRTLILGSAAGQSHKD [OR2G6] | 122 ± 18 | –
2 | MGTEATEQVSWGHYSGDEEDAYSAEPLPELCYKADVQAFSRAFQPSVSLTVAALGLAGNGLVLATHLAARRAARSPTSAHLLQLALADLLLALTLPFAAAGALQGWSLGSATCRTISGLYSASFHAGFLFLACISADRYVAIARALPAGPRPSTPGRAHLVSVIVWLLSLLLALPALLFSQDGQREGQRRCRLIFPEGLTQTVKGASAVAQVALGFALPLGVMVACYALLGRTLLAARGPERRRALRVVVALVAAFVVLQLPYSLALLLDTADLLAARERSCPASKRKDVALLVTSGLALARCGLNPVLYAFLGLRFRQDLRRLLRGGSCPSGPQPRRGCPRRPRLSSCSAPTETHSLSWDN [CCR10] | – | 424 ± 20
3 | MRAVFIQGAEEHPAAFCYQVNGSCPRTVHTLGIQLVIYLACAAGMLIIVLGNVFVAFAVSYFKALHTPTNFLLLSLALADMFLGLLVLPLSTIRSVESCWFFGDFLCRLHTYLDTLFCLTSIFHLCFISIDRHCAICDPLLYPSKFTVRVALRYILAGWGVPAAYTSLFLYTDVVETRLSQWLEEMPCVGSCQLLLNKFWGWLNFPLFFVPCLIMISLYVKIFVVATRQAQQITTLSKSLAGAAKHERKAAKTLGIAVGIYLLCWLPFTIDTMVDSLLHFITPPLVFDIFIWFAYFNSACNPIIYVFSYQWFRKALKLTLSQKVFSPQTRTVDLYQE [TAAR5] | – | 381 ± 140
4 | MWQKNQTSLADFILEGLFDDSLTHLFLFSLTMVVFLIAVSGNTLTILLICIDPQLHTPMYFLLSQLSLMDLMHVSTIILKMATNYLSGKKSISFVGCATQHFLYLCLGGAECFLLAVMSYDRYVAICHPLRYAVLMNKKVGLMMAVMSWLGASVNSLIHMAILMHFPFCGPRKVYHFYCEFPAVVKLVCGDITVYETTVYISSILLLLPIFLISTSYVFILQSVIQMRSSGSKRNAFATCGSHLTVVSLWFGACIFSYMRPRSQCTLLQNKVGSVFYSIITPTLNSLIYTLRNKDVAKALRRVLRRDVITQCIQRLQLWLPRV [OR2AE1] | 159 ± 49 | –
5 | MASPSNDSTAPVSEFLLICFPNFQSWQHWLSLPLSLLFLLAMGANTTLLITIQLEASLHQPLYYLLSLLSLLDIVLCLTVIPKVLAIFWFDLRSISFPACFLQMFIMNSFLTMESCTFMVMAYDRYVAICHPLRYPSIITDQFVARAVVFVIARNAFVSLPVPMLSARLRYCAGNIIKNCICSNLSVSKLSCDDITFNQLYQFVAGWTLLGSDLILIVISYSFILKVVLRIKAEGAVAKALSTCGSHFILILFFSTVLLVLVITNLARKRIPPDVPILLNILHHLIPPALNPIVYGVRTKEIKQGIQNLLKRL [OR56A4] | 419 ± 210 | –
6 | MNATGTPVAPESCQQLAAGGHSRLIVLHYNHSGRLAGRGGPEDGGLGALRGLSVAASCLVVLENLLVLAAITSHMRSRRWVYYCLVNITLSDLLTGAAYLANVLLSGARTFRLAPAQWFLREGLLFTALAASTFSLLFTAGERFATMVRPVAESGATKTSRVYGFIGLCWLLAALLGMLPLLGWNCLCAFDRCSSLLPLYSKRYILFCLVIFAGVLATIMGLYGAIFRLVQASGQKAPRPAARRKARRLLKTVLMILLAFLVCWGPLFGLLLADVFGSNLWAQEYLRGMDWILALAVLNSAVNPIIYSFRSREVCRAVLSFLCCGCLRLGMRGPGDCLARAVEAHSGASTTDSSLRPRDSFRGSRSLSFRMREPLSSISSVRSI [S1PR4] | – | 6452 ± 53
7 | MGENQTMVTEFLLLGFLLGPRIQMLLFGLFSLFYIFTLLGNGAILGLISLDSRLHTPMYFFLSHLAVVDIAYTRNTVPQMLANLLHPAKPISFAGCMTQTFLCLSFGHSECLLLVLMSYDRYVAICHPLRYSVIMTWRVCITLAVTSWTCGSLLALAHVVLILRLPFSGPHEINHFFCEILSVLRLACADTWLNQVVIFAACVFFLVGPPSLVLVSYSHILAAILRIQSGEGRRKAFSTCSSHLCVVGLFFGSAIIMYMAPKSRHPEEQQKVFFLFYSFFNPTLNPLIYSLRNGEVKGALRRALGKESHS [OR2A1] | 106 ± 11 | –
8 | MPNSTTVMEFLLMRFSDVWTLQILHSASFFMLYLVTLMGNILIVTVTTCDSSLHMPMYFFLRNLSILDACYISVTVPTSCVNSLLDSTTISKAGCVAQVFLVVFFVYVELLFLTIMAHDRYVAVCQPLHYPVIVNSRICIQMTLASLLSGLVYAGMHTGSTFQLPFCRSNVIHQFFCDIPSLLKLSCSDTFSNEVMIVVSALGVGGGCFIFIIRSYIHIFSTVLGFPRGADRTKAFSTCIPHILVVSVFLSSCSSVYLRPPAIPAATQDLILSGFYSIMPPLFNPIIYSLRNKQIKVAIKKIMKRIFYSENV [OR14C36] | 264 ± 80 | –
9 | MANVTLVTGFLLMGFSNIQKLRILYGVLFLLIYLAALMSNLLIITLITLDVKLQTPMYFFLKNLSFLDVFLVSVPIPKFIVNNLTHNNSISILGCAFQLLLMTSFSAGEIFILTAMSYDRYVAICCPLNYEVIMNTGVCVLMASVSWAIGGLFGTAYTAGTFSMPFCGSSVIPQFFCDVPSLLRISCSETLMVIYAGIGVGACLSISCFICIVISYIYIFSTVLKIPTTKGQSKAFSTCFPHLTVFTVFIITAYFVYLKPPSNSPSVIDRLLSVIYTVMPPVFNPVTYSLRNNDMKCALIRLLQKTYGQEAYFI [OR14A2] | 133 ± 42 | –
10 | MVPHLLLLCLLPLVRATEPHEGRADEQSAEAALAVPNASHFFSWNNYTFSDWQNFVGRRRYGAESQNPTVKALLIVAYSFIIVFSLFGNVLVCHVIFKNQRMHSATSLFIVNLAVADIMITLLNTPFTLVRFVNSTWIFGKGMCHVSRFAQYCSLHVSALTLTAIAVDRHQVIMHPLKPRISITKGVIYIAVIWTMATFFSLPHAICQKLFTFKYSEDIVRSLCLPDFPEPADLFWKYLDLATFILLYILPLLIISVAYARVAKKLWLCNMIGDVTTEQYFALRRKKKKTIKMLMLVVVLFALCWFPLNCYVLLLSSKVIRTNNALYFAFHWFAMSSTCYNPFIYCWLNENFRIELKALLSMCQRPPKPQEDRPPSPVPSFRVAWTEKNDGQRAPLANNLLPTSQLQSGKTDLSSVEPIVTMS [GPR83] | – | 490 ± 39
11 | MGMEGLLQNSTNFVLTGLITHPAFPGLLFAIVFSIFVVAITANLVMILLIHMDSRLHTPMYFLLSQLSIMDTIYICITVPKMLQDLLSKDKTISFLGCAVQIFLYLTLIGGEFFLLGLMAYDRYVAVCNPLRYPLLMNRRVCLFMVVGSWVGGSLDGFMLTPVTMSFPFCRSREINHFFCEIPAVLKLSCTDTSLYETLMYACCVLMLLIPLSVISVSYTHILLTVHRMNSAEGRRKAFATCSSHIMVVSVFYGAAFYTNVLPHSYHTPEKDKVVSAFYTILTPMLNPLIYSLRNKDVAAALRKVLGRCGSSQSIRVATVIRKG [OR2T2] | 130 ± 17 | –
12 | MGRWVNQSYTDGFFLLGIFSHSQTDLVLFSAVMVVFTVALCGNVLLIFLIYLDAGLHTPMYFFLSQLSLMDLMLVCNIVPKMAANFLSGRKSISFVGCGIQIGFFVSLVGSEGLLLGLMAYDRYVAVSHPLHYPILMNQRVCLQITGSSWAFGIIDGVIQMVAAMGLPYCGSRSVDHFFCEVQALLKLACADTSLFDTLLFACCVFMLLLPFSIIMASYACILGAVLRIRSAQAWKKALATCSSHLTAVTLFYGAAMFMYLRPRRYRAPSHDKVASIFYTVLTPMLNPLIYSLRNGEVMGALRKGLDRCRIGSQH [OR2V1] | 153 ± 28 | –
13 | METQNLTVVTEFILLGLTQSQDAQLLVFVLVLIFYLIILPGNFLIIFTIKSDPGLTAPLYFFLGNLALLDASYSFIVVPRMLVDFLSEKKVISYRSCITQLFFLHFLGAGEMFLLVVMAFDRYIAICRPLHYSTIMNPRACYALSLVLWLGGFIHSIVQVALILHLPFCGPNQLDNFFCDVPQVIKLACTNTFVVELLMVSNSGLLSLLCFLGLLASYAVILCRIREHSSEGKSKAISTCTTHIIIIFLMFGPAIFIYTCPFQAFPADKVVSLFHTVIFPLMNPVIYTLRNQEVKASMRKLLSQHMFC [OR4N5] | 216 ± 66 | –
14 | MASFSAETNSTDLLSQPWNEPPVILSMVILSLTFLLGLPGNGLVLWVAGLKMQRTVNTIWFLHLTLADLLCCLSLPFSLAHLALQGQWPYGRFLCKLIPSIIVLNMFASVFLLTAISLDRCLVVFKPIWCQNHRNVGMACSICGCIWVVAFVMCIPVFVYREIFTTDNHNRCGYKFGLSSSLDYPDFYGDPLENRSLENIVQPPGEMNDRLDPSSFQTNDHPWTVPTVFQPQTFQRPSADSLPRGSARLTSQNLYSNVFKPADVVSPKIPSGFPIEDHETSPLDNSDAFLSTHLKLFPSASSNSFYESELPQGFQDYYNLGQFTDDDQVPTPLVAITITRLVVGFLLPSVIMIACYSFIVFRMQRGRFAKSQSKTFRVAVVVVAVFLVCWTPYHIFGVLSLLTDPETPLGKTLMSWDHVCIALASANSCFNPFLYALLGKDFRKKARQSIQGILEAAFSEELTRSTHCPSNNVISERNSTTV [C3AR1] | – | 327 ± 41
15 | MSGENVTKVSTFILVGLPTAPGLQYLLFLLFLLTYLFVLVENLAIILIVWSSTSLHRPMYYFLSSMSFLEIWYVSDITPKMLEGFLLQQKRISFVGCMTQLYFFSSLVCTECVLLASMAYDRYVAICHPLRYHVLVTPGLCLQLVGFSFVSGFTISMIKVCFISSVTFCGSNVLNHFFCDISPILKLACTDFSTAELVDFILAFIILVFPLLATILSYWHITLAVLRIPSATGCWRAFSTCASHLTVVTVFYTALLFMYVRPQAIDSQSSNKLISAVYTVVTPIINPLIYCLRNKEFKDALKKALGLGQTSH [OR6B2] | 153 ± 9.6 | –
16 | MSENGSFANCCEAGGWAVRPGWSGAGSARPSRTPRPPWVAPALSAVLIVTTAVDVVGNLLVILSVLRNRKLRNAGNLFLVSLALADLVVAFYPYPLILVAIFYDGWALGEEHCKASAFVMGLSVIGSVFNITAIAINRYCYICHSMAYHRIYRRWHTPLHICLIWLLTVVALLPNFFVGSLEYDPRIYSCTFIQTASTQYTAAVVVIHFLLPIAVVSFCYLRIWVLVLQARRKAKPESRLCLKPSDLRSFLTMFVVFVIFAICWAPLNCIGLAVAINPQEMAPQIPEGLFVTSYLLAYFNSCLNAIVYGLLNQNFRREYKRILLALWNPRHCIQDASKGSHAEGLQSPAPPIIGVQHQADAL [MTNR1B] | – | 280 ± 17
17 | MANSASPEQNQNHCSAINNSIPLMQGNLPTLTLSGKIRVTVTFFLFLLSATFNASFLLKLQKWTQKKEKGKKLSRMKLLLKHLTLANLLETLIVMPLDGMWNITVQWYAGELLCKVLSYLKLFSMYAPAFMMVVISLDRSLAITRPLALKSNSKVGQSMVGLAWILSSVFAGPQLYIFRMIHLADSSGQTKVFSQCVTHCSFSQWWHQAFYNFFTFSCLFIIPLFIMLICNAKIIFTLTRVLHQDPHELQLNQSKNNIPRARLKTLKMTVAFATSFTVCWTPYYVLGIWYWFDPEMLNRLSDPVNHFFFLFAFLNPCFDPLIYGYFSL [GNRHR] | – | 160 ± 34
18 | MEKWNHTSNDFILLGLLPPNQTGIFLLCLIILIFFLASVGNSAMIHLIHVDPRLHTPMYFLLSQLSLMDLMYISTTVPKMAYNFLSGQKGISFLGCGVQSFFFLTMACSEGLLLTSMAYDRYLAICHSLYYPIRMSKMMCVKMIGGSWTLGSINSLAHTVFALHIPYCRSRAIDHFFCDVPAMLLLACTDTWVYEYMVFVSTSLFLLFPFIGITSSCGRVLFAVYHMHSKEGRKKAFTTISTHLTVVIFYYAPFVYTYLRPRNLRSPAEDKILAVFYTILTPMLNPIIYSLRNKEVLGAMRRVFGIFSFLKE [OR2L13] | 139 ± 4.1 | –
